For 2 substances, stoichiometry N results are on record in paper PMC12645917.

As usually defined, the stoichiometry N is the number of molecules, sites or subunits per partner or assembly.

The target of test [1] is PEDV S-Trimer (trimerized PEDV spike protein, 2P-stabilised, residues 1-1,319 with C-terminal GCN4 trimerization motif) (porcine epidemic diarrhea virus (PEDV)). Description: SEC; purified protein on Superose 6 increase 10/300 GL, 20 mM HEPES pH 7.6, 150 mM NaCl; single peak compared with the 669 kDa standard. For orientation: In gel filtration, larger molecules generally elute earlier.

Test [2] addresses TGEV S-Trimer (trimerized TGEV spike protein, 2P-stabilised, residues 1-1,388 with C-terminal GCN4 trimerization motif) (transmissible gastroenteritis virus (TGEV)). Described as above.

Regarding “PEDV S-Trimer (trimerized PEDV spike protein, 2P-stabilised, residues 1-1,319 with C-terminal GCN4 trimerization motif) (natural protein)”, the stoichiometry N in test [1] was determined as 3.
Take “TGEV S-Trimer (trimerized TGEV spike protein, 2P-stabilised, residues 1-1,388 with C-terminal GCN4 trimerization motif) (natural protein)”: the stoichiometry N in test [2] worked out at 3.
